4 molecules from patent US20110045002A1 (BRIGHAM AND WOMEN S HOSPITAL, published 2011) can be followed below.

Assay [1] concerns the target T1, Tim-4 on CHO or HEK293 transfectants (Tim-4-pDisplay construct, N-terminal HA tag, Tim-4 signal sequence … (mouse, UniProt Q6U7R4 30-343)).
T1 construct: also called Tim-4 transfectants; CHO-Tim-4; not shown: N-terminal HA tag of the pDisplay vector
T1 sequence: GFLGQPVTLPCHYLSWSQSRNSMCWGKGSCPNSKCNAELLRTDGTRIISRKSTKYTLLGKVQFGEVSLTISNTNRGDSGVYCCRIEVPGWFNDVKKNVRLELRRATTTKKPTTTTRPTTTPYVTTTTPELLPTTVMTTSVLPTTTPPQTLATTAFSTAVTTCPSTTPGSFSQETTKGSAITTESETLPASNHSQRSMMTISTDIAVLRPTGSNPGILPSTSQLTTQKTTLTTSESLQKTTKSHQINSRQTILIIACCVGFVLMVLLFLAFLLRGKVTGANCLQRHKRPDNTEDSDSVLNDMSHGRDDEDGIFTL
Put plainly: flow cytometry, cell surface staining of CHO transfectants (FIG. 14A). A general note: Flow cytometry measures light scatter and fluorescence of single cells or particles in a stream.

Assay [2] concerns the target T2, Tim-1 on CHO-Tim-1 transfectants (CHO-K1 cells transfected with pEF6 containing murine Tim-1 cDNA) (murine, UniProt Q5QNS5 22-305).
T2 sequence: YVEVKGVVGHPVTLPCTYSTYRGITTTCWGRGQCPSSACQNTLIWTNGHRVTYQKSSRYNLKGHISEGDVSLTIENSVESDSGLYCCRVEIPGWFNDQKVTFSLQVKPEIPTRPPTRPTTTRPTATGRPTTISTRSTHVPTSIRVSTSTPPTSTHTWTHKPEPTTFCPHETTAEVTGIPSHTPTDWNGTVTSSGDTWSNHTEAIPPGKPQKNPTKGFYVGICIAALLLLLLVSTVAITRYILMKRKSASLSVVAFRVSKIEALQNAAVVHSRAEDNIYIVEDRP
Put plainly: flow cytometry, cell surface staining of CHO transfectants.

Assay [3] addresses T3, Tim-3 on CHO-Tim-3 transfectants (UniProt Q8VIM0 20-281, limits assumed).
T3 construct: whole, on cells
The description is as above.

Assay [4] concerns the target T4, Tim-2 on CHO-Tim-2 transfectants (mouse, UniProt Q8R183 22-305).
T4 sequence: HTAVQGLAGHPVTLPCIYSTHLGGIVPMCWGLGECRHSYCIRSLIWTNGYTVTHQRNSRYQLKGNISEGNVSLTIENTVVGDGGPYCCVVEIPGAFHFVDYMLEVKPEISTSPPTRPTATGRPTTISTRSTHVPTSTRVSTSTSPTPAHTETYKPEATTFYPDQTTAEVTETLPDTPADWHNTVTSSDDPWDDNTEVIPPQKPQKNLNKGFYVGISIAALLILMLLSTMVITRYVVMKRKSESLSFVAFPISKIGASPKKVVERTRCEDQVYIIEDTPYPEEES
Described as above.

Assay [5] concerns the target T1, Tim-4 on CHO or HEK293 transfectants …. The description is as above.

T3 sequence (Q8VIM0 20-281 limits assumed): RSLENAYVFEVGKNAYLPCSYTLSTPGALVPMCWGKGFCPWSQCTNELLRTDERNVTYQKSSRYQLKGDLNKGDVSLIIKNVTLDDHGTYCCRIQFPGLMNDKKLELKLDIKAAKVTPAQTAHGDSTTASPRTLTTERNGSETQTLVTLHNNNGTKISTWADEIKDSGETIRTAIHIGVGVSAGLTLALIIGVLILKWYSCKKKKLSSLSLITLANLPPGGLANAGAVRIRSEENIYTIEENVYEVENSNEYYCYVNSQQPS

B1: Tim-1-Ig, full-length (Tim-1 extracellular IgV and mucin domains fused to human IgG1 Fc tail) (Fc fusion)
chain: YVEVKGVVGHPVTLPCTYSTYRGITTTCWGRGQCPSSACQNTLIWTNGHRVTYQKSSRYNLKGHISEGDVSLTIENSVESDSGLYCCRVEIPGWFNDQKVTFSLQVKPEIPTRPPTRPTTTRPTATGRPTTISTRSTHVPTSIRVSTSTPPTSTHTWTHKPEPTTFCPHETTAEVTGIPSHTPTDWNGTVTSSGDTWSNHTEAIPPGKPQKNPTKG
notes: Only the extracellular IgV and mucin part stood in the assay; also called Tim1/Fc; full-length Tim-1-Ig; not shown: human IgG1 Fc tail
With B1, the binding result is on record as “binds” in assay [1], “no binding” in assay [2], “no binding” in assay [3] and “no binding” in assay [4].

B2: Tim-4-Ig (soluble Ig fusion polypeptide: extracellular IgV and mucin domains of Tim-4 fused to a human IgG1 Fc tail) (Fc fusion)
chain: FLGQPVTLPCHYLSWSQSRNSMCWGKGSCPNSKCNAELLRTDGTRIISRKSTKYTLLGKVQFGEVSLTISNTNRGDSGVYCCRIEVPGWFNDVKKNVRLELRRATTTKKPTTTTRPTTTPYVTTTTPELLPTTVMTTSVLPTTTPPQTLATTAFSTAVTTCPSTTPGSFSQETTKGSAITTESETLPASNHSQRSMMTISTDIAVLRPTGSNPGILPSTSQLTTQKTTLTTSESLQKTTKSHQINSRQTIL
notes: Made by Chimerigen; also called tim-4:Ig fusion; not shown: human IgG1 Fc tail
As to B2, the binding result in assay [3], in assay [4] and in assay [5] was “no binding” each time.

B3: Tim-1-Ig containing only the Tim-1 IgV domain (Fc fusion)
chain: SYVEVKGVVGHPVTLPCTYSTYRGITTTCWGRGQCPSSACQNTLIWTNGHRVTYQKSSRYNLKGHISEGDVSLTIENSVESDSGLYCCRVEIPGWFNDQKVTFSLQVKP
notes: also called Tim-1-Ig (IgV only); Tim-1-Ig fusion polypeptide (containing only the Tim-1 IgV domain); not shown: Ig Fc tail
Turning to B3, in assay [1], the binding result is recorded as “binds”.

B4: Tim-2-Ig (Tim-2 extracellular IgV and mucin domains fused to human IgG1 Fc tail) (Fc fusion)
chain: HTAVQGLAGHPVTLPCIYSTHLGGIVPMCWGLGECRHSYCIRSLIWTNGYTVTHQRNSRYQLKGNISEGNVSLTIENTVVGDGGPYCCVVEIPGAFHFVDYMLEVKPEISTSPPTRPTATGRPTTISTRSTHVPTSTRVSTSTSPTPAHTETYKPEATTFYPDQTTAEVTETLPDTPADWHNTVTSSDDPWDDNTEVIPPQKPQKNLNKG
notes: Only the extracellular IgV and mucin part stood in the assay; also called Tim2/Fc; not shown: human IgG1 Fc tail
Consider B4, for which the binding result in assay [2], in assay [3], in assay [4] and in assay [5] was “no binding” in each case.
